Data as given in patent US20250127857A1, “A COMPOSITION COMPRISING IL-36 AND/OR IL-18 FOR USE IN TREATING OCULAR DISORDERS” (THE PROVOST, FELLOWS, FOUNDATION SCHOLARS, & THE OTHER …, priority 2021, published 2025).

Key:
Type in all cases: cell-based, human
[1] = tested on: HRMEC; experiment: Tube formation assay (Matrigel); details: HRMEC on matrigel, 100 ng/ml, 4 hours, vs unstimulated control
Procedure: Cells were seeded 2 days prior to the experiment in a T75 in complete growth media and allowed to become ˜80% confluent. They were placed in low serum media overnight prior to use in the experiment. 96 well plates were coated with 60 μl of Matrigel Basement Membrane Matrix (Corning) and placed in a 370C incubator for 30 minutes to set as per manufacturer's instructions. HRMEC were then seeded onto the plates at a density of 8×10^4 cells/ml and treated as indicated with cytokine in triplicate. The plates were placed in an Incucyte and phase contrast images of the wells were taken at 10× for 30 minute intervals. The angiogenesis analyser plug-in for ImageJ was used to analyse the images.

[2] = tested on: HRMEC; experiment: Proliferation assays (nuclei cell count, MTS/PMS); details: 24 hours
Procedure: HRMEC were seeded on coverslips in 6 well plates at a density of 5×10^4 cells/ml and allowed to grow overnight in growth media. They were then washed in PBS and placed in reduced serum media and incubated with treatment for 24 hour. The coverslip was then washed in PBS, fixed in ice cold methanol and stained with Hoechst (1:10000). The coverslips were then affixed to slides and imaged via fluorescence. N=10 images per slip were taken and averaged to give a cell count per coverslip. For the MTS/PMS assay (Promega) cells were seeded at a density of 5×10^4 cells/ml in a 96 well plate. They were allowed to grow overnight in complete growth media before being washed and placed in low-serum media with the treatment indicated for 24 hours before the MTS/PMS assay was carried out as per manufacturer's protocol.

[3] = tested on: HRMEC; experiment: HRMEC scratch wound healing / migration with IL-36 cytokines; details: treatment applied at time of scratch, 100 ng/ml
Procedure: FIG. 4 illustrates IL-36 cytokines promote endothelial cell migration, wherein (A, B) are representational images of the HRMEC ‘scratch’ healing with (A) IL-36α (B) IL-36β treatment compared to control at 10× magnification, wherein purple dotted lines equate to the size of the wound as imaged using Image J; (C) is rate of wound healing in HRMEC treated with IL-36α expressed as % wound closure, representational of N=4 experiments, wherein two-way ANOVA was performed as statistical test; (D) is a comparison of the level of wound healing between untreated (unt.) and 100 ng/ml IL-36α at 4 and 24 hr post scratch, consolidated N=4 experiments, wherein two-way ANOVA with multiple comparison was performed as statistical test; (E) is rate of wound healing in HRMEC treated with IL-36β expressed as % wound closure, representational of N=4 experiments, wherein two-way ANOVA with multiple comparison performed as statistical test; (F) is a comparison of the level of wound healing between no treatment and 100 ng/ml IL-36β at 4 and 24 hr post scratch, consolidated N=4 experiments, wherein two-way ANOVA with multiple comparison was performed as statistical test;
Cells were seeded on to a 12-well plate and grown until they reached confluency. […] The area within the scratch was quantified using ImageJ software, and each timepoint was normalised to its baseline and expressed as % closure.

[4] = tested on: HRMEC transwell monolayer; experiment: Trans-endothelial electrical resistance (TEER) measurement; details: 100 ng/ml, 6 hr, vs untreated control
[5] = tested on: HRMEC transwell monolayer; experiment: Permeability assay (4 kDa FITC dextran flux, Papp); details: 100 ng/ml, 6 or 24 hour exposure
Procedure: HRMEC were grown on transwells (Corning) for 5-7 days to polarize. The cells were placed in low serum media and treated with IL-36 cytokines for 6 or 24 hours, before 4 kDa FITC dextran (Sigma) diluted to 1 mg/ml in low serum media was placed in the apical chamber. Sampling aliquots were periodically removed from the basal chamber and placed in a 96 well plate. The basolateral chamber was then replenished with fresh media. This was repeated at 20-minute intervals for 2 hours. The fluorescence of FITC dextran was measured using a fluorescent plate-reader (BioTek) at an excitation wavelength of 485 nm and an emission wavelength of 520 nm. Relative fluorescence units (RFU) were converted to ng/ml using a FITC dextran standard curve and corrected for background fluorescence and serial dilutions over the course of the experiment. The apparent permeability coefficient (Papp) was calculated as follows: […]
where dQ/dT is the apparent rate of FITC dextran appearance in the basolateral chamber, A (cm^2) is the surface area of the insert, C0 (mg/ml) is the initial FITC-dextran concentration in the apical chamber. dQ/dT is the slope (y=mx+c) calculated by plotting the cumulative amount (Q) against time(s).

[6] = tested on: VE-cadherin; experiment: Western blot for VE-cadherin protein expression; details: HRMEC, 24 h
Procedure: (§1) FIG. 6 illustrates IL-36 cytokines alter the protein levels of adherens and tight junction components in endothelial cells, wherein (A, B) are Western blot for VE-cadherin protein expression in response to (A) IL-36α, (B) IL-36β treatment for 24 hours at indicated doses in HRMEC, representative N=4 experiments; (C, D) are Western blot for the expression of tight junction proteins ZO-1, tricellulin and occludin in response to (C) IL-36α and (D) IL-36β treatment at indicated concentrations for 24 hours in HRMEC, representative of N=3 experiments; (E) is rate of flux of 70 kDa FITC dextran through HRMEC transwell monolayer with 6 hr pretreatment of 100 ng/ml IL-36α and/or 10 μM cycloheximide (CHX), with treatment applied to apical and basal chambers, representative of N=3 experiments; (F) is permeability apparent for HRMEC treated with IL-36α and/or 10 μM CHX, calculated as stated previously; (G) is rate of flux of 70 kDa FITC dextran through HRMEC transwell monolayer with 6 hr pretreatment of 100 ng/ml IL-36β and/or 10 μM CHX, with treatment applied to apical and basal chambers, representative of N=3 experiments; (H) is permeability apparent for HRMEC treated with IL-36β and/or CHX, calculated as stated previously, wherein T-tests were performed as statistical analysis;
(§2) Protein was extracted from cells using RIPA buffer containing protease inhibitors (Sigma). […]

[7] = tested on: ZO-1, tricellulin and occludin; experiment: Western blot for tight junction proteins; details: HRMEC, 24 h, indicated concentrations
Procedure: as §1, §2

[8] = tested on: HRMEC transwell monolayer; experiment: Inhibition of translation (cycloheximide) with 70 kDa FITC dextran flux; details: 100 ng/ml cytokine plus 10 μM cycloheximide (CHX), 6 hr
Procedure: HRMEC were grown in transwells as above. Once polarised, HRMEC were treated with 10 μM of the translation inhibitor cycloheximide (Sigma) and/or IL-36 cytokine. 70 kDa FITC dextran (Sigma) diluted to 1 mg/ml in low serum media was placed in apical chamber and performing a FITC flux assay as described above.

[9] = tested on: VEGFR2; experiment: qPCR of VEGFR2 expression in HRMEC treated with IL-36 cytokines; details: treatment over timepoints
Excerpt: Primers used were sourced from Sigma.

B1: IL-36α: recombinant human (rh) IL-36α (Peprotech) (protein, UniProt Q9UHA7 6-158, looked up)
Interleukin-36 alpha: KIDTPQQGSIQDINHRVWVLQDQTLIAVPRKDRMSPVTIALISCRHVETLEKDRGNPIYLGLNGLNLCLMCAKVGDQPTLQLKEKDIMDLYNQPEPVKSFLFYHSQSGRNSTFESVAFPGWFIAVSSEGGCPLILTQELGKANTTDFGLTMLF
- length of tubes [1]: potential ability to increase the length of the tubes
- number of cells (stained nuclei count) ([2]; 100 ng/ml): increase in the number of cells
- proliferation (MTS/PMS assay) ([2]; 50 or 100 ng/ml): significant increase in proliferation
- proliferation compared with VEGF (MTS/PMS assay) ([2]; VEGF 50 ng/ml positive control): neither cytokine was as effective as VEGF alone
- rate of wound closure and cell migration [3]: increased the rate of wound closure and cell migration significantly
- TEER [4]: significantly increased TEER
- rate of FITC-dextran migrating across the HRMEC monolayer [5]: notably decreased
- VE-cadherin protein expression [6]: Increased expression of VE-cadherin
- expression of ZO-1, tricellulin and occludin protein [7]: dose dependent increase in expression
- IL-36-dependent barrier enhancement under inhibition of protein translation [8]: absolute loss
- VEGFR2 expression [9]: reduce VEGFR2 expression
